Test results: patent US20170233494

Target: mouse MBL (mannose-binding lectin of mouse serum)

B1: recombinant mouse MASP-2 (rMASP-2) (protein)
chain: SKWPEPVFGRLVSPGFPEKYADHQDRSWTLTAPPGYRLRLYFTHFDLELSYRCEYDFVKLSSGTKVLATLCGQESTDTEQAPGNDTFYSLGPSLKVTFHSDYSNEKPFTGFEAFYAAEDVDECRVSLGDSVPCDHYCHNYLGGYYCSCRAGYILHQNKHTCSALCSGQVFTGRSGYLSSPEYPQPYPKLSSCTYSIRLEDGFSVILDFVESFDVETHPEAQCPYDSLKIQTDKGEHGPFCGKTLPPRIETDSHKVTITFATDESGNHTGWKIHYTSTARPCPDPTAPPNGSISPVQATYVLKDRFSVFCKTGFELLQGSVPLKSFTAVCQKDGSWDRPMPECSIIDCGPPDDLPNGHVDYITGPQVTTYKAVIQYSCEETFYTMSSNGKYVCEADGFWTSSKGEKLPPVCEPVCGLSTHTIGGRIVGGQPAKPGDFPWQVLLLGQTTAAAGALIHDNWVLTAAHAVYEKRMAASSLNIRMGILKRLSPHYTQAWPEEIFIHEGYTHGAGFDNDIALIKLKNKVTINGSIMPVCLPRKEAASLMRTDFTGTVAGWGLTQKGLLARNLMFVDIPIADHQKCTTVYEKLYPGVRVSANMLCAGLETGGKDSCRGDSGGALVFLDNETQRWFVGGIVSWGSINCGAAGQYGVYTKVINYIPWNENIISNF
C4 deposition on mannan-coated wells (sMAP-/- mouse serum): the amount of C4 was restored by up to 46% of that of wild-type serum in a dose-dependent manner and reached a plateau
